Assay results published in the supplement of paper PMC10567573.
± gives the standard deviation.

Assay: protein stability index of a GFP-peptide fusion (GPS, HEK-293T) (PSI 1-6); higher = more stable
[1] = treatment: DMSO, c terminus: a fixed tail appended
[2] = treatment: MLN4924 1 uM, 8 h, c terminus: a fixed tail appended
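Also: 24-mer peptide tiles fused after GFP, lentivirally expressed, FACS-sorted into six equal bins by GFP/DsRed ratio, decoded by Illumina sequencing, PSI is the read-weighted mean bin number.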

| Sequence | protein stability index [1] | protein stability index [2] | protein stability index (treatment: DMSO, c terminus: native) | protein stability index (treatment: MLN4924 1 uM, 8 h, c terminus: native) |
| --- | --- | --- | --- | --- |
| SIEEILEEQRVEQQTKLEAEKLKV [LSM1] | 5.11 ± 0.34 | 5.2 ± 0.22 |  |  |
| SIHCLGPIKLELLEPKANLQAALQ [VPS39] | 2.61 ± 0.34 | 2.45 ± 0.36 |  |  |
| SILTDNPTWIIDPIDGTTNFVHRF [IMPA1] | 2.19 ± 0.26 | 2.12 ± 0.27 |  |  |
| SINALLQAEVLSRQITSPVSGING [HNF4A] | 2.7 ± 0.13 | 2.67 ± 0.2 |  |  |
| SIVTAAKKDILLVNDHLLNFVRER [PDS5B] | 2.25 ± 0.16 | 2.3 ± 0.27 |  |  |
| SKAAAGKMNLYESFAQATQLGDLH [INTS3] | 3.63 ± 0.25 | 3.58 ± 0.23 |  |  |
| SKETRLTLMEEVLLLGLKDREGYT [GOLPH3] | 2.8 ± 0.22 | 2.75 ± 0.28 |  |  |
| SKLSRKYVKAKKSIDKDEEFAGSS [FAN1] | 4.84 ± 0.14 | 4.64 ± 0.31 |  |  |
| SKRNIKKGAVPRSIPNLAEVKKKG [HDAC6] | 4.26 ± 0.47 | 4.46 ± 0.44 |  |  |
| SKTEELNREVATNSELVQSGKSEI [KRT17] | 5.34 ± 0.22 | 5.06 ± 0.1 |  |  |
| SKVLSLQDLCCRAVVSCTPVHLVD [RAB40B] | 3.01 ± 0.17 | 2.85 ± 0.32 |  |  |
| SLDFTKKILHTAWHPAENIIAIAA [PPP2R2C] | 2.58 ± 0.59 | 2.29 ± 0.31 |  |  |
| SLFSQALKDEEAKVLQLTVRCEAL [CCDC89] | 2.8 ± 0.26 | 2.76 ± 0.17 |  |  |
| SLLNKKADGVKPQTNSTKNSAAAT [CAMK2B] | 4.43 ± 0.055 | 4.34 ± 0.23 |  |  |
| SLLRPLNSLAALDLSGIQTSDAAF [ZER1] | 2.87 ± 0.15 | 2.9 ± 0.24 |  |  |
| SLLVHGFKPACMSEIKNLERYMCS [TENT5D] | 2.48 ± 0.41 | 2.41 ± 0.29 |  |  |
| SLSDQMSVLQSVWMEVLVLGVAQR [ESRRA] | 3.33 ± 0.35 | 2.98 ± 0.46 |  |  |
| SLSPSPLGSSAASTALERPSFLSQ [FCHO1] | 4.09 ± 0.25 | 3.98 ± 0.19 |  |  |
| SLVQLQASHQQQVLPPRQPSALVP [MYBL2] | 3.54 ± 0.23 | 3.63 ± 0.28 |  |  |
| SMENANQENEEKEQVANKGEPLAL [BEX1] | 5 ± 0.26 | 5.11 ± 0.22 |  |  |
| SMQEDEQSGRDLQQYQSQAKQLFR [SEC22B] | 4.22 ± 0.17 | 4.35 ± 0.19 |  |  |
| SNFEQTQIQEFKEAFTLMDQNRDG [MYL5] | 5.11 ± 0.2 | 4.93 ± 0.33 |  |  |
| SNLSTRDASILTEMPTQPGKPLIP [NETO1] | 4.52 ± 0.18 | 4.57 ± 0.26 |  |  |

| Sequence | protein stability index [1] | protein stability index [2] | protein stability index (treatment: DMSO, c terminus: native) | protein stability index (treatment: MLN4924 1 uM, 8 h, c terminus: native) |
| --- | --- | --- | --- | --- |
| SPAKASQASKLRASKEEKEDWLSH [FBF1] | 4.92 ± 0.37 | 4.92 ± 0.3 |  |  |
| SPNFGFMGQLLQYESEILPSTPNP [DUSP5] | 3.59 ± 0.092 | 3.45 ± 0.48 |  |  |
| SPSKSFWTRITCAEEGWSPTPKCL [CFHR2] | 2.17 ± 0.22 | 2.47 ± 0.33 |  |  |
| SPVTRTRSLSACNKRVGMYLEGFD [DLC1] | 3 ± 0.3 | 3.19 ± 0.3 |  |  |
| SQAPVNKPKKKKEKKEKEKKKKDK [BRD3] | 5.32 ± 0.32 | 5.3 ± 0.32 |  |  |
| SQNIQEDDLQQLQLFTEYGRLAMD [ATL3] | 4.3 ± 0.27 | 4.09 ± 0.47 |  |  |
| SQRAMLLQGTESLNRATQSIERSH [VTI1B] | 4.27 ± 0.13 | 4.35 ± 0.21 |  |  |
| SQVRALDRFQVPTTEVNAWLVHRD [NFE2L1] | 3.37 ± 0.47 | 3.33 ± 0.48 |  |  |
| SSAASLIDFLRVVRNQQSLAVSNM [PTPN9] | 2.26 ± 0.43 | 2.1 ± 0.26 |  |  |
| SSDESPGSKCSPEDLATAYNNRGQ [TTC32] | 5.28 ± 0.18 | 5.44 ± 0.12 |  |  |
| SSEKLNLQKDLETRPTQHELRLYK [CEP70] | 4.12 ± 0.16 | 4.1 ± 0.36 |  |  |
| SSNVSLSLFVLDQNDNAPEILYPA [PCDHGA10] | 2.48 ± 0.13 | 2.38 ± 0.29 |  |  |
| SSNYFSPRESTDFSSSSQEAFAAS [ZBTB22] | 4.41 ± 0.17 | 4.41 ± 0.15 |  |  |
| SSTCGQLASYPLALVRTRMQAQAS [SLC25A25] | 2.74 ± 0.23 | 3 ± 0.1 |  |  |
| SSYSLSDMVSNIELPTRIHEEVYF [MIA2] | 2.35 ± 0.39 | 2.5 ± 0.6 |  |  |
| STSLPDPGDFDRNVPRICGVCGDR [VDR] | 4.6 ± 0.2 | 4.56 ± 0.55 |  |  |
| STTALGDKQRKANESKGTRESWDS [ELOA2] | 4.06 ± 0.49 | 4.34 ± 0.72 |  |  |
| SVDIWAIGCVFAELLTGQPLWPGK [CDKL4] | 2.6 ± 1.3 | 3.02 ± 0.97 |  |  |
| SVGCIFAEMFRRKPLFCGNSEADQ [CDK4] | 2.37 ± 0.2 | 2.58 ± 0.23 |  |  |
| SVGHNNLIPLANTGIVNHTHSRMG [CARM1] | 3.47 ± 0.32 | 3.66 ± 0.2 |  |  |
| SVNEHTEEGESLLCLACSAGYYEL [ANKRD17] | 2.64 ± 0.38 | 2.93 ± 0.29 |  |  |
| SVPLAYFLLSQQTDLPECEQSSAR [TCF25] | 3.07 ± 0.25 | 2.89 ± 0.5 |  |  |
| SVSLQINCQSVAQMNLLQKYSLLK [DLC1] | 2.2 ± 0.12 | 2.13 ± 0.22 |  |  |

| Sequence | protein stability index [1] | protein stability index [2] | protein stability index (treatment: DMSO, c terminus: native) | protein stability index (treatment: MLN4924 1 uM, 8 h, c terminus: native) |
| --- | --- | --- | --- | --- |
| SWEGLAVLDSLLLTLLPQLQEAWQ [RSAD1] | 3.27 ± 0.35 | 3.22 ± 0.52 |  |  |
| SWNSQSSLLDVQRVPSFESFEDDC [ETS2] | 4.84 ± 0.17 | 4.67 ± 0.13 |  |  |
| SYKIEEISPSTLKNSLFPSPISSI [KCNK9] | 2.6 ± 0.21 | 2.7 ± 0.33 |  |  |
| SYRIHNGQKLVVPGLLGSMALSNH [FBXO3] | 2.35 ± 0.27 | 2.43 ± 0.31 |  |  |
| SYSQSSNLFRHQRRHNAEKLLNVV [ZNF24] | 2.58 ± 0.27 | 2.97 ± 0.41 |  |  |
| SYSREHEGRLRYPSRREPPPRRSR [CLK3] | 5.28 ± 0.2 | 5.01 ± 0.48 |  |  |
| TAERITQLSAPHCKKLSLELGGKN [ALDH8A1] | 3.75 ± 0.21 | 3.98 ± 0.19 |  |  |
| TCCYFKFIIEYYNIRPADSRWVRD [FBXO34] | 2.84 ± 1.2 | 2.29 ± 0.54 |  |  |
| TCFVRDGKTYCKRDYVRLFGIKCA [ISL2] | 2.46 ± 0.18 | 2.17 ± 0.19 |  |  |
| TDFFKNIMNFIDIVAIIPYFITLG [KCNA1] | 3.22 ± 0.62 | 3.6 ± 0.2 |  |  |
| TDPGDVPAFLKWLSLASLLVYVAA [SLC2A12] | 2.37 ± 0.39 | 2.66 ± 1 |  |  |
| THLEAQNRIKGCHDHLTLSVSRPE [PDLIM4] | 3.57 ± 0.18 | 3.66 ± 0.23 |  |  |
| TINPSKRITAAEALKHPWISHRST [CAMK2A] | 3.06 ± 0.23 | 3.21 ± 0.2 |  |  |
| TKCRKRKLERIARLEDKVKTLKAE [JUNB] | 4.28 ± 0.23 | 4.42 ± 0.29 |  |  |
| TKSHSFRAMCQNGKLVYPSCEEK [CFHR2] |  |  | 3.813 ± 0.01 | 4.09 ± 0.12 |
| TLCAVLERDTLSIRESRLFGAVVR [BTBD1] | 2.4 ± 0.38 | 2.22 ± 0.56 |  |  |
| TLCQFPETLLGDPKRRMRYFDPLR [KCNA3] | 2.26 ± 0.14 | 2.5 ± 0.34 |  |  |
| TPNASSPGNPTALANGTVQAPKQK [LPCAT4] | 5.31 ± 0.13 | 5.43 ± 0.15 |  |  |
| TPNSAGGPGAHILRRKSPASGQGP [ADAMTS4] | 4.55 ± 0.15 | 4.93 ± 0.28 |  |  |
| TPTPVAAALDACSGNDPFAPSEGS [SNAP91] | 5.29 ± 0.32 | 5.47 ± 0.24 |  |  |
| TQGQEKMMMMGPKEEEQSCEYETR [ZNF232] | 5.42 ± 0.38 | 5.59 ± 0.16 |  |  |
| TQKLSHSTKPSGSPLEEKHDQCKC [MATN2] | 5.15 ± 0.38 | 4.94 ± 0.29 |  |  |
| TQLTQNAVSCPYLPSNLLKKFRSS [KCNA4] | 3.32 ± 0.37 | 3.39 ± 0.2 |  |  |

| Sequence | protein stability index [1] | protein stability index [2] | protein stability index (treatment: DMSO, c terminus: native) | protein stability index (treatment: MLN4924 1 uM, 8 h, c terminus: native) |
| --- | --- | --- | --- | --- |
| TREQLYQAIFHAVDQYLALPDVSL [MCOLN1] | 3.37 ± 0.54 | 2.67 ± 0.61 |  |  |
| TRRSCIDESQISAEEAEDHGRIPD [FAM189A2] | 5.5 ± 0.33 | 5.49 ± 0.15 |  |  |
| TRSCSSASSRSQQSSKRSSRSVED [CLK3] | 5.047 ± 0.044 | 5.02 ± 0.22 |  |  |
| TRWCHIVRDSDSLAESEFESAAFS [PHTF1] | 3.45 ± 0.054 | 3.33 ± 0.29 |  |  |
| TSENLKLVHIVCHKKTTHKLNCDP [DFFB] | 2.81 ± 0.19 | 2.97 ± 0.21 |  |  |
| TSIGMPSLMYRSPPGAEEPQAPPA [RETREG3] | 5.12 ± 0.12 | 4.92 ± 0.07 |  |  |
| TSQGQVRMRLFGQRCQKCSWSQYE [RTP4] | 2.4 ± 0.37 | 2.01 ± 0.39 |  |  |
| TSRRSGVGLAVVNGQLMAVGGFDG [KLHL20] | 2.99 ± 0.23 | 2.94 ± 0.41 |  |  |
| TSSNLGSQYQCENGVSGPSQDLLP [TBX5] | 4.78 ± 0.16 | 4.6 ± 0.15 |  |  |
| TSSTFGLQDGNLRAPHKESTLPRS [CHCHD6] | 4.42 ± 0.34 | 4.61 ± 0.14 |  |  |
| TSTPPPASVINNMLAEIFCQTGGV [ZBED1] | 2.84 ± 0.076 | 2.73 ± 0.23 |  |  |
| TTARERPCVRPGVSGSPVTQNHAA [FBF1] | 4.33 ± 0.23 | 4.51 ± 0.3 |  |  |
| TTEVNAWLVHRDPEGSVSGSQPNS [NFE2L1] | 4.33 ± 0.17 | 4.64 ± 0.35 |  |  |
| TTLDEFPLTRLGQLKACTNFDDIL [KCNG1] | 2.99 ± 0.26 | 2.92 ± 0.22 |  |  |
| TTTHAPPGVHRRYSALREESAKDW [PPFIA4] | 4.23 ± 0.3 | 4.47 ± 0.15 |  |  |
| TVDIQNPDITSSRYRGLPAPGPSP [WAS] | 4.49 ± 0.24 | 4.7 ± 0.18 |  |  |
| TVNVQRTGQPLPQSIQQAMRYLRN [DLC1] | 3.17 ± 0.18 | 3.33 ± 0.23 |  |  |
| TVVSVRGFEESEPLTGFLTTVPDG [TNXB] | 3.92 ± 0.25 | 3.78 ± 0.41 |  |  |
| TWHHTKPLLPSDLRRTGCAALRIA [GAN] | 2.45 ± 0.33 | 2.48 ± 0.24 |  |  |
| TYWQCGQYLGVGPGAHGRFMPQGA [RSAD1] | 2.27 ± 0.26 | 2.65 ± 0.49 |  |  |
